The values that follow come from US20170159020A1.

Assay [1] addresses α6β1 integrin (UniProt P23229). As to the kind of experiment: solid-phase integrin binding assay: 521E8 coated on plate, 10 nM α6β1 integrin, A490.
Assay [2] addresses α6β1 integrin (UniProt P23229). As to the kind of experiment: solid-phase integrin binding assay: 511E8 coated on plate, 10 nM α6β1 integrin, A490.

Chain of UniProt P23229 (P23229 other isoform, or with tags, fused parts or gaps limits assumed, chain 1 of 2): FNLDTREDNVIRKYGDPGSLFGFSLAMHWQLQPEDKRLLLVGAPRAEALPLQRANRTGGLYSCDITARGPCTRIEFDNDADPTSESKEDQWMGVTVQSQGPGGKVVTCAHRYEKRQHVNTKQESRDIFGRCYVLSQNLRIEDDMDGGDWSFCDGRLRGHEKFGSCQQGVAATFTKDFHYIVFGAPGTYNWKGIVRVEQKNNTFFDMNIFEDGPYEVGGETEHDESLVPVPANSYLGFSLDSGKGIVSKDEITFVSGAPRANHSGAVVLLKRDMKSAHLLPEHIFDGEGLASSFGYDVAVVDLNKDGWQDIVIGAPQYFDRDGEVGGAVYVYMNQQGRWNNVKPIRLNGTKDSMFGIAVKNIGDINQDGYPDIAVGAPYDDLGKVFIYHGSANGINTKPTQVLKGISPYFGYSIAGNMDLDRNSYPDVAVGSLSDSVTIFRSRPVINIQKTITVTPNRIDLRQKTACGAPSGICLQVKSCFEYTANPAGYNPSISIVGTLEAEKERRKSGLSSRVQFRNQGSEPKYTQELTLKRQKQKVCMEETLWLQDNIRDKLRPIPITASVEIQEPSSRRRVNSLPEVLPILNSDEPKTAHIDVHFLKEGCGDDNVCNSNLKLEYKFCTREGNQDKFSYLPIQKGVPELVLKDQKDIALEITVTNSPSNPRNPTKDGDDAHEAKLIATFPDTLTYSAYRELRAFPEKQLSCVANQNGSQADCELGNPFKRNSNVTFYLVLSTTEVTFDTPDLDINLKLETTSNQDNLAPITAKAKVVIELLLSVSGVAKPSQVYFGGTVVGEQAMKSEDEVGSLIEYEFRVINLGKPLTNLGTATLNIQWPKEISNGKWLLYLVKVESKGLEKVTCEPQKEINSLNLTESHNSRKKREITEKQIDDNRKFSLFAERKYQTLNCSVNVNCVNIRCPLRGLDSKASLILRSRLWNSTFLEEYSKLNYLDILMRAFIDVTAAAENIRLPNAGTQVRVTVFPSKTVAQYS
Chain of UniProt P23229 (P05556 21-728 limits assumed, chain 2 of 2, further chain): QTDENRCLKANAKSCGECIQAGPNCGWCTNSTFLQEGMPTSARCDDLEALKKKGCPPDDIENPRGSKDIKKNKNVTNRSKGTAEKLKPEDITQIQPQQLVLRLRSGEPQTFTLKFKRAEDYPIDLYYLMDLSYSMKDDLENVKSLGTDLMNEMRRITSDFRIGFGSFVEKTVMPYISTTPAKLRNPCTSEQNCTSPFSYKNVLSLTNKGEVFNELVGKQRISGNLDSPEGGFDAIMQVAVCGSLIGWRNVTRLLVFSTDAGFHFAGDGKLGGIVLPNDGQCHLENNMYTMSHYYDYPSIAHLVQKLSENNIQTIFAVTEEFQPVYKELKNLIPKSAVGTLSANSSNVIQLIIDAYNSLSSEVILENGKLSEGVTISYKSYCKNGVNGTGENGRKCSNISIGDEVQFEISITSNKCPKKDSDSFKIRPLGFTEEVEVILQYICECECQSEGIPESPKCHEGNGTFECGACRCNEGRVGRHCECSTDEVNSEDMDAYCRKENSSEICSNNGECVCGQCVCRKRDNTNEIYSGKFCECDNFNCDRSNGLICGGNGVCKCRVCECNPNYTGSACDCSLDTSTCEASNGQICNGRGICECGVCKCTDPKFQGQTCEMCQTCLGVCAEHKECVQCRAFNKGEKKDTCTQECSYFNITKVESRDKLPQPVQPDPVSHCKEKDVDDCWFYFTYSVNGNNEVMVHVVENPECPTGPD

As for “Human recombinant laminin 521E8 (from UniProt O15230 2534-3327; P55268 1573-1798; P11047 1362-1608) (ligand)”, in assay [1], the increase in integrin binding activity by addition of 50 µg/mL HSA to the coating solution, against 521E8 coated alone was in the range of 10 to 20%; the increase in integrin binding activity by addition of 50 µg/mL gelatin to the coating solution, against 521E8 coated alone lay within 10 to 60%; the increase in integrin binding activity by addition of 500 µg/mL HSA to the coating solution, against 521E8 coated alone, at 2.7 nM 521E8 was above 60%; the increase in integrin binding activity by addition of gelatin (500 µg/mL by context) to the coating solution, against 521E8 coated alone, at 2.7 nM 521E8 was above 80%.

With “Human recombinant laminin 511E8 (from UniProt O15230 2534-3327; P07942 1561-1786; P11047 1362-1608) (ligand)”, in assay [2], the fold increase in integrin binding activity by addition of gelatin (500 µg/mL by context) to the coating solution, against 511E8 coated alone, at 2.7 nM 511E8 is above 2 fold; the increase in integrin binding activity by addition of 50 µg/mL HSA to the coating solution, against 511E8 coated alone worked out at 10%; the increase in integrin binding activity by addition of 50 µg/mL gelatin to the coating solution, against 511E8 coated alone lay within 20 to 60%; the increase in integrin binding activity by addition of HSA (500 µg/mL by context) to the coating solution, against 511E8 coated alone, at 2.7 nM 511E8 was above 80%.
